Earlier results, collected in paper PMC3022782.

Molecular target: β sliding clamp rim (Escherichia coli) (UniProt P0A988)
UniProt P0A988, sequence (P0A988 whole entry): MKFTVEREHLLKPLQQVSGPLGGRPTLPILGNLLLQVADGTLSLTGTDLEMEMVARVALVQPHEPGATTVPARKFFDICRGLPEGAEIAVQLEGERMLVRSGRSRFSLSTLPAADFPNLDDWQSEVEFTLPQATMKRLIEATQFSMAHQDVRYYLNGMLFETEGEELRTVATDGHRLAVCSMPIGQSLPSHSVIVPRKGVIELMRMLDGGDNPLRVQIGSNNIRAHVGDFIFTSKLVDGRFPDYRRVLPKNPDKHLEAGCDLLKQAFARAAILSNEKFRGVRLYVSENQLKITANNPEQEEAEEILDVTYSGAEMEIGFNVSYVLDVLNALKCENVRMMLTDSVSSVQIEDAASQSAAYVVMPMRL

In the case of Pol IV (from UniProt Q47155), the Kd is listed as 1 µM.
